Laboratory results from patent US10124019B2, “Compositions and their use for removing cholesterol” (Cornell University, priority 2009, dated 2018).

Columns and labels:
[1] = system: NPC1-deficient, NPC2-deficient, apparently normal, and U18666A-treated normal cells; assay: GC/MS measurement of total free cholesterol; assay type: cell-based, human; conditions: normal cells treated with 1 μM U18666A
Protocol: FIGS. […]. Charts showing GC/MS measurement of cyclodextrin effects on total free cholesterol levels in NPC1-deficient, NPC2-deficient, apparently normal, and U18666A-treated normal cells. […] Cells were treated with 0.9 mM MβCD or HPβCD for 1 day in growth medium. At the end of the experiment, cellular lipids were extracted and analyzed by GC/MS. Data represent averages±SEM of two independent experiments normalized to control average value for each experiment.

[2] = system: U18666A-treated GM05659 cells; assay: LSO filipin assay in U18666A-treated apparently normal fibroblasts; conditions: GM05659 treated with various concentrations of U18666A (FIG. 14A)
Protocol: Cells were plated in 384-well assay plates at a density to produce ≈80-90% confluency by experiment completion and treated with U18666A at indicated concentrations for 24 hour before addition of various concentrations of either MβCD or HPβCD for another 24 hours, during which indicated U18666A levels were maintained. At the end of the experiment, cells were fixed with 1% PFA and stained with 50 μg/mL filipin. Images were acquired using an ImageXpressMICRO imaging system with a 10× objective. […] (A) Cholesterol accumulation, as measured by the LSO filipin assay, at different concentrations of U18666A. MβCD (B) and HPβCD (C) LSO filipin dose-response curves at three different U18666A concentrations. […] Data represent averages±SEM of two independent experiments (n=12 for control and n=6 for treated, where n is total number of wells per condition used for quantification).

NPC (GM03123) Fbs [3] = assay: rhASM enzyme replacement, LSO filipin quantification in NPC fibroblasts; assay type: cell-based, human
Protocol: FIGS. 27 A-C. Graph showing the effect of SMase restoration on human NPC1 cells (exogenous acid SMase decreases cholesterol accumulation in LSOs in human NPC fibroblasts). Parallel sets of human WT (GM05659) and NPC (GM03123) Fbs were incubated in medium alone or, in the case of the NPC fibroblasts, medium containing 3 μg/mL recombinant human acid SMase (rhASM). Two days later, the cells were washed thoroughly with PBS and either lysed and assayed for acid SMase activity (A), or fixed and stained with filipin for imaging and quantification (B). […] Scale bar, 15 μm. The quantified data in the bar graph represent LSO ratios normalized to the WT Fb values (average of 60-66 images from three independent experiments±SEM). C) Another human NPC Fbs (GM18453) was incubated with 3 μg/mL rhASM for 24 h, unlike 48 h in NPC1 (GM03123). Quantified data shown in bar chart are the normalized LSO ratios (normalized to untreated NPC Fbs) in the presence and absence of recombinant enzyme. Data represents an average from two independent experiments and 30-36 images±SEM, p<0.0001.
(§1) FIG. 29 A,B. Decreased LSO cholesterol accumulation and increased acid SMase activity are achieved in NPC1 human fibroblasts by increasing amounts of rhASM. WT (GM5659) and NPC (GM03123) Fbs were incubated with 0, 0.2 and 1.8 μg/mL rhASM for 24 hours. To remove surface-bound label, the cells were further incubated for 15 minutes with growth medium without the enzyme. The cells were washed thoroughly with PBS and either lysed and assayed for acid SMase activity (A) or fixed and stained with filipin for imaging and quantification (B). Each data point in plot (A) is representative of three wells in an experiment, p<0.05. Plot (B) represents LSO ratios normalized to the untreated NPC Fb […] values (average of 16-20 images from two independent experiments±SEM), p<0.005.
(§2) Normal (GM05659) and NPC1 human fibroblasts (GM03123) were incubated in a medium containing 3 μg/mL recombinant human acid SMase (rhASM). Two days later, the cells were washed thoroughly with PBS, and either lysed and assayed for acid SMase activity or fixed and stained with filipin for imaging and quantification. NPC1 human fibroblasts GM18453 were treated with 3 μg/mL rhASM for 24 h before fixing, staining with filipin, imaging and quantifying.
Cells were plated onto poly-d-lysine-coated 35-mm coverslip dishes in a medium containing 10% FBS. After 1-2 days of growth, the cell monolayers were washed three times with PBS and then fixed with 3% paraformaldehyde in PBS for 20 minutes at room temperature, followed by three more washes with PBS. To detect free cholesterol, filipin was added to the fixed cells (50 μg/mL in PBS) for 45 minutes at room temperature. Finally, the cells were washed three times with PBS, and images were acquired immediately after labeling.
(§3) Images were analyzed using Metamorph (version 7.0 r4) image analysis software from Molecular Devices (MDS Analytical Technologies). All images were corrected for background before analysis. The average filipin and LSO ratio was calculated as described previously (Pipalia 2006). The LSO ratio was calculated based on low-thresholded region and high-thresholded intensities in the filipin image as described previously (Pipalia 2006).

WT Fbs (GM05659) [4] = assay: Acid SMase activity assay after rhASM, wild-type fibroblasts; assay type: cell-based, human; conditions: 24 hours
Protocol: as §1
Cell extracts were prepared by scraping cells into ice-cold 250 mM sucrose, followed by sonication on ice twice for 10 seconds each using a Branson Sonifier 450. To prepare the substrate, solvent from 0.1 μCi [cholinemethyl-^14C] […] The assay solution, which was added to 1.5-mL microcentrifuge tubes on ice, consisted of 50 μL assay buffer, 20 μL substrate and 20 μL of cell extract. After incubation for 60 minutes at 37° C., the reaction was terminated by adding 125 μL of chloroform:methanol (2:1, v/v). The assay tubes were vortexed for 1 minute and then centrifuged 5000×g for 5 minutes at 4° C. […]

NPC (GM03123) Fbs [5] = assay: Acid SMase activity assay after rhASM, NPC fibroblasts; assay type: cell-based, human
Protocol: as §1
Cell extracts were prepared by scraping cells into ice-cold 250 mM sucrose, followed by sonication on ice twice for 10 seconds each using a Branson Sonifier 450. […]
as §2

WT Fbs (GM05659) [6] = assay: rhASM, LSO filipin quantification in wild-type fibroblasts; assay type: cell-based, human; conditions: all doses of rhASM tested (0, 0.2, 1.8 μg/mL)
Protocol: as §1
Cells were plated onto poly-d-lysine-coated 35-mm coverslip dishes in a medium containing 10% FBS. […]
as §3, with “All images were corrected for background before analysis.” left out

| decrease in LSO filipin intensity (NPC (GM03123) Fbs [3]; 0.2 μg/mL rhASM, 24 hours) | reduction of LSO filipin intensity (NPC (GM03123) Fbs [3]; 1.8 μg/mL rhASM, 24 hours) | decrease in LSO filipin intensity (NPC (GM03123) Fbs [3]; 3 μg/mL rhASM (FIG. 27)) | residual cholesterol accumulation (NPC (GM03123) Fbs [3]; excess acid SMase, NPC1 cells) | Molecule | free cholesterol per μg cell protein [1] | extent of cholesterol accumulation in LSOs [2] | LSO filipin fluorescence (NPC (GM03123) Fbs [3]; 3 μg/mL rhASM, two days (FIG. 27B)) | acid SMase activity (WT Fbs (GM05659) [4]; 0.2 μg/mL rhASM) | acid SMase activity (WT Fbs (GM05659) [4]; 1.8 μg/mL rhASM) | acid SMase activity (NPC (GM03123) Fbs [5]; 0.2 μg/mL rhASM, 24 hours) | defect in acid SMase activity (NPC (GM03123) Fbs [5]; 3 μg/mL rhASM, two days (FIG. 27A)) | LSO filipin staining (WT Fbs (GM05659) [6]) |
| --- | --- | --- | --- | --- | --- | --- | --- | --- | --- | --- | --- | --- |
|  |  |  |  | CCN(CC)CCO[C@H]1CC[C@@]2(C)C(=CC[C@@H]3[C@@H]2CC[C@]2(C)C(=O)CC[C@@H]32)C1 [U18666A, 3-β-[(2-diethyl-amino)ethoxy]androst-5-en-17-one] | 0.074 ± 0.006 pmol/µg | dose dependent |  |  |  |  |  |  |
| ~20% | ~60% | 65-70% | 25-30% | rhASM: Recombinant human acid SMase prepared from transfected CHO cells (protein, UniProt P17405 47-631, looked up) Sphingomyelin …: LALSDSRVLWAPAEAHPLSPQGHPARLHRIVPRLRDVFGWGNLTCPICKGLFTAINLGLKKEPNVARVGSVAIKLCNLLKIAPPAVCQSIVHLFEDDMVEVWRRSVLSPSEACGLLLGSTCGHWDIFSSWNISLPTVPKPPPKPPSPPAPGAPVSRILFLTDLHWDHDYLEGTDPDCADPLCCRRGSGLPPASRPGAGYWGEYSKCDLPLRTLESLLSGLGPAGPFDMVYWTGDIPAHDVWHQTRQDQLRALTTVTALVRKFLGPVPVYPAVGNHESTPVNSFPPPFIEGNHSSRWLYEAMAKAWEPWLPAEALRTLRIGGFYALSPYPGLRLISLNMNFCSRENFWLLINSTDPAGQLQWLVGELQAAEDRGDKVHIIGHIPPGHCLKSWSWNYYRIVARYENTLAAQFFGHTHVDEFEVFYDEETLSRPLAVAFLAPSATTYIGLNPGYRVYQIDGNYSGSSHVVLDHETYILNLTQANIPGAIPHWQLLYRARETYGLPNTLPTAWHNLVYRMRGDMQLFQTFWFLYHKGHPPSEPCGTPCRLATLCAQLSARADSPALCRHLMPDGSLPEAQSLWPRPLFC |  |  | dramatically decreased LSO filipin fluorescence | increased slightly | did not increase further | increased acid SMase activity significantly | corrected | remained low and constant |
